Test results taken from patent publication US20170128544A1.

Target: Bb, the active site-bearing fragment of Factor B (human) (UniProt P00751)
Assay: surface plasmon resonance, decay-dissociation of the convertase

Sequence of Bb, the active site-bearing fragment of Factor B (human) (P00751 260-764 limits assumed): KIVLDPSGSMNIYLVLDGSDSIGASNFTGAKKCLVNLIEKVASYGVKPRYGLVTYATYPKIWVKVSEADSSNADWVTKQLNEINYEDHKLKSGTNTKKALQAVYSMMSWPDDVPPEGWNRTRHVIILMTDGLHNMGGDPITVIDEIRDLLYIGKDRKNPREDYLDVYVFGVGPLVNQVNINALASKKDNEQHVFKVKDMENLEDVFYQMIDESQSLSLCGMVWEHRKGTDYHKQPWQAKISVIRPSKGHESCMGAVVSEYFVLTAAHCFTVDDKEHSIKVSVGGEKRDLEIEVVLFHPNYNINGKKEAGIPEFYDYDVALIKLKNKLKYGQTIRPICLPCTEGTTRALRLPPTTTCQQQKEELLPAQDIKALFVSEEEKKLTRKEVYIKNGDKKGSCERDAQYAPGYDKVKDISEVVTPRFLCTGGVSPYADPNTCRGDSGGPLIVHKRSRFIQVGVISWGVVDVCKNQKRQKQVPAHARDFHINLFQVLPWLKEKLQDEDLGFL

| Substance | Half-life at 25° C. (hrs) of the spontaneous decay-dissociation [h] |
| --- | --- |
| cobra venom factor (CVF), natural (from UniProt Q91132 23-649; Q91132 733-984; Q91132 1264-1642) | 19.2 |
| humanized cobra venom factor (hCVF) protein HC3-1550b (from UniProt P01024 23-1549; Q91132 1529-1642) | 2 |
